Reference: patent publication US20230212549A1 (3B PHARMACEUTICALS, published 2023)
Values joined by “and” are separate entries in the source; they are usually repeats but may differ in a detail not shown here. Identical values can stand only once. Blank lines part the entries; values can stand above or below the binder they belong to. Numbered stars: 1 amine (or outer) side, 2 acyl side, 3 side chain; on linkers, the order of the positions; unused ones are H or OH. Bridge positions count the residues as written; N and C are the ends. Square brackets hold non-standard residues; d marks the D form. Primed or numbered codes have the meaning given here. * marks the point of attachment. tMeBn(DOTA-PP) = 1,3,5-trimethylbenzylidene, two thioethers to Cys, third CH2 bound to one N of piperazine whose other N bears DOTA, O=C(O)CN1CCN(CC(=O)O)CCN(CC(=O)N2CCN(Cc3cc(C[*:1])cc(C[*:2])c3)CC2)CCN(CC(=O)O)CC1; TBMB(SCH2CH2NH-DOTA) = O=C(O)CN1CCN(CC(=O)O)CCN(CC(=O)NCCSCc2cc(C[*:1])cc(C[*:2])c2)CCN(CC(=O)O)CC1; 3MeBn = 3-Methylbenzylidene (m-xylylene thioether bridge from α,α′-dibromo-m-xylene); Ttds(4) = spacer between chelator and peptide, O=C(CCC(=O)[*:2])NCCCOCCOCCOCCCN[*:1]; N4Ac = 6-Carboxy-1,4,8,11-tetraazaundecane, an N4-chelator, NCCNCC(CNCCN)C(=O)*; 3Lut = 3,5-lutidylidene (derived from 3,5-lutidine); nBu‑CAyl = n-butylaminocarbonyl, CCCCNC(=O)*; Pro(4S-NH2) = N[C@@H]1CN[C@H](C(=O)O)C1; mXylylene = c1cc(C[*:1])cc(C[*:2])c1; PPAc = 4-Carboxymethyl piperazine; Nle = CCCC[C@H](N)C(=O)O; Orn = NCCC[C@H](N)C(=O)O; PEG6′ = not defined here; Hexanoyl = CCCCCC(=O)*; βAla = NCCC(=O)O; Sar = CNCC(=O)O

Key:
[1] = target: T1, human fibroblast activation protein (FAP) on WI-38 fibroblasts (human, UniProt Q12884 1-760); test: competitive FACS, WI-38 cells, Cy5-labeled peptide as competitor; C = pIC50 6.1 to 7.0
T1 construct: FAP-expressing human WI-38 fibroblasts (ECACC)

[2] = target: T2, human fibroblast activating protein (FAP) on WI-38 fibroblasts (human, UniProt Q12884 1-760); test: competitive FACS on WI-38 cells vs 3 nM Cy5-labeled peptide; pIC50 category A = >8.0
T2 construct: FAP-expressing human WI-38 fibroblasts (ECACC)

[3] = target: T3, Human recombinant FAP captured on anti-FAP antibody (SPR) (human, UniProt Q12884 26-760); test: SPR (Biacore), rhFAP captured by anti-FAP antibody; pKD category A = >8.0
T3 construct: whole entry of human FAP named; also called rhFAP

[4] = target: T4, fibroblast activation protein (FAP) on FAP-expressing human WI-38 fibroblasts (human, UniProt Q12884 1-760); test: competitive FACS, WI-38 cells, vs Cy5 tracer m3; D = pIC50 <=6.0
T4 construct: also called human FAP

[5] = target: Recombinant human FAP (R&D systems, #3715-SE) (human, UniProt Q12884 26-760); test: cell-based or functional assay
[6] = target: T2, human fibroblast activating protein …; test: competitive FACS on WI-38 cells vs 3 nM Cy5-labeled peptide; pIC50 category C = 6.1-7.0
[7] = target: T3, Human recombinant FAP captured on …; test: SPR (Biacore), rhFAP captured by anti-FAP antibody; pKD category B = 7.1-8.0
[8] = target: T2, human fibroblast activating protein …; test: competitive FACS on WI-38 cells vs 3 nM Cy5-labeled peptide; pIC50 category B = 7.1-8.0

B1: Hex-[Cys(tMeBn(DOTA-PP))-Pro-Pro-Thr-Ala-Phe-Cys]-Asp-NH2 (peptide)
peptide: Hexanoyl-CPPTAFCD-NH2
modifications: linker 1-7 via tMeBn(DOTA-PP)
SMILES: CCCCCC(=O)N[C@H]1CSCc2cc(cc(CN3CCN(C(=O)CN4CCN(CC(=O)O)CCN(CC(=O)O)CCN(CC(=O)O)CC4)CC3)c2)CSC[C@@H](C(=O)N[C@@H](CC(=O)O)C(N)=O)NC(=O)[C@H](Cc2ccccc2)NC(=O)[C@H](C)NC(=O)[C@H]([C@@H](C)O)NC(=O)[C@@H]2CCCN2C(=O)[C@@H]2CCCN2C1=O
notes: also called 3BP-3739
pIC50 [1]: 6.1 to 7 pic50

B3: Hex-[Cys(3MeBn)-Pro-Pro-Orn(Ac)-Glu-Phe-Cys]-NH2 (peptide)
peptide: Hexanoyl-CPP[Orn](Ac)EFC-NH2
modifications: linker 1-7 via mXylylene
SMILES: CCCCCC(=O)N[C@H]1CSCc2cccc(c2)CSC[C@@H](C(N)=O)NC(=O)[C@H](Cc2ccccc2)NC(=O)[C@H](CCC(=O)O)NC(=O)[C@H](CCCNC(C)=O)NC(=O)[C@@H]2CCCN2C(=O)[C@@H]2CCCN2C1=O
notes: also called 3BP-3372
pIC50 Category (FACS) [4]: ≤ 6 pIC50
pIC50 Category (Activity) [5]: 6.1 pIC50 and 7 pIC50

Binder: {nBu‑CAyl}-CPPTEFC-OH (linker 1-7 via tMeBn(NOPO-AET), also called 3BP-4778) [nBu-CAyl-[C(tMeBn(NOPO-AET))-PPTEFC]-OH]
pIC50 [2]: > 8 pic50
pKD [3]: > 8 pkd

Binder: {N4Ac-PEG6′-βAla}-[Nle]CPPTEFC-OH (linker 2-8 via 3MeBn, also called 3BP-4779) [N4Ac-PEG6-Bal-Nle-[C(3MeBn)-PPTEFC]-OH]
pIC50 [6]: 6.1 to 7 pic50

The remaining lines, values ahead:

pIC50 [2]: > 8 pic50
pKD [3]: > 8 pkd
Binder: {N4Ac-PPAc-Ttds(4)}-[Nle]CPPTEFC[βAla]-OH (linker 2-8 via 3MeBn, also called 3BP-4784) [N4Ac-PPAc-Ttds-Nle-[C(3MeBn)-PPTEFC]-Bal-OH]

pKD [3]: > 8 pkd
B2: nBu-CAyl-[Cys(tMeBn(DOTA-AET))-Nmg-Pro-Thr-Gln-Phe-Cys]-NH2 (peptide)
peptide: {nBu‑CAyl}-C[Sar]PTQFC-NH2
modifications: linker 1-7 via TBMB(SCH2CH2NH-DOTA)
SMILES: CCCCNC(=O)N[C@H]1CSCc2cc(CSCCNC(=O)CN3CCN(CC(=O)O)CCN(CC(=O)O)CCN(CC(=O)O)CC3)cc(c2)CSC[C@@H](C(N)=O)NC(=O)[C@H](Cc2ccccc2)NC(=O)[C@H](CCC(N)=O)NC(=O)[C@H]([C@@H](C)O)NC(=O)[C@@H]2CCCN2C(=O)CN(C)C1=O
notes: also called 3BP-4621

pIC50 Category (FACS) [4]: ≤ 6 pIC50
pIC50 Category (Activity) [5]: 6.1 pIC50 and 7 pIC50
B4: Hex-[Cys(3MeBn)-Pro-Tap-Thr-Glu-Phe-Cys]-NH2 (peptide)
peptide: Hexanoyl-CP[Pro(4S-NH2)]TEFC-NH2
modifications: linker 1-7 via mXylylene
SMILES: CCCCCC(=O)N[C@H]1CSCc2cccc(c2)CSC[C@@H](C(N)=O)NC(=O)[C@H](Cc2ccccc2)NC(=O)[C@H](CCC(=O)O)NC(=O)[C@H]([C@@H](C)O)NC(=O)[C@@H]2C[C@H](N)CN2C(=O)[C@@H]2CCCN2C1=O
notes: also called 3BP-3367

pKD [7]: 7.1 to 8 pkd
pIC50 [8]: 7.1 to 8 pic50
Binder: {N4Ac-PEG6′}-[Nle]CPPTEFC-OH (linker 2-8 via 3Lut, also called 3BP-4773) [N4Ac-PEG6-Nle-[C(3Lut)-PPTEFC]-OH]

pKD [7]: 7.1 to 8 pkd
pIC50 [8]: 7.1 to 8 pic50
Binder: {N4Ac-PPAc-Ttds(4)}-[Nle]CPPTEFC-OH (linker 2-8 via 3Lut, also called 3BP-4775) [N4Ac-PPAc-Ttds-Nle-[C(3Lut)-PPTEFC]-OH]
